72 sequences from the supplement of paper PMC10567573 can be followed below.

± gives the standard deviation.

A short description of this series: protein stability index of a GFP-peptide fusion (GPS, HEK-293T) (PSI 1-6); higher = more stable.
Setting [1] is: treatment: DMSO, c terminus: a fixed tail appended.
[2] abbreviates: treatment: MLN4924 1 uM, 8 h, c terminus: a fixed tail appended.
Where [3] appears, read: treatment: DMSO, c terminus: native.
Setting [4] is: treatment: MLN4924 1 uM, 8 h, c terminus: native.
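Further: 24-mer peptide tiles fused after GFP, lentivirally expressed, FACS-sorted into six equal bins by GFP/DsRed ratio, decoded by Illumina sequencing, PSI is the read-weighted mean bin number.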

With LPPTPLLLFPEEEATNGREGLLRF [AUP1], the protein stability index is, setting by setting: under setting [1], 3.7 ± 0.33; under setting [2], 3.73 ± 0.13.
The matching figures for LPVVNAVGEIVGIITRHNLTYEFL [CLCN6]: 3.07 ± 0.43 and 2.75 ± 0.66.
The matching figures for LQDIKTAGPQSQVLCGVVMDRSLV [ADD1]: 2.98 ± 0.22 and 2.91 ± 0.19.
In turn, LQEKQKNEKLISLQEQLQRFLKK [TAF7L] returned a protein stability index under setting [3] of 4.51 ± 0.29 and a protein stability index under setting [4] of 4.6 ± 0.15.
In the case of LQFEAEMARLQEEHGDQLLSIRCQ [MTUS2], the protein stability index reads like this: under setting [1], 3.99 ± 0.12; under setting [2], 3.92 ± 0.51.
The matching figures for LQGKDAWLPLHYAAWQGHLPIVKL [RIPK4]: 2.21 ± 0.38 and 2.48 ± 0.42.
The matching figures for LREMLSKKHAAYAWPFYKPVDAEA [BRD3]: 2.54 ± 0.26 and 2.99 ± 0.16.
For the sequence LRGKECCINRFQQVESRWGYSGTS [BTBD1], the protein stability index is, setting by setting: under setting [1], 2.47 ± 0.18; under setting [2], 2.72 ± 0.16.
The matching figures for LRKSDMLEKEQVAHIRAERDILVE [STK38L]: 3.8 ± 0.35 and 4.17 ± 0.13.
In the same order, the values of LRLCRLWPRNPPSRLLGAAAGQRS [DNAJC4] are 2.75 ± 0.54 and 2.7 ± 0.39.
The matching figures for LRLFGRVLERAACLRRCKRTLPAF [P3H4]: 2.37 ± 0.46 and 2.16 ± 0.53.
With LRLPMLNTEVVQVAAGRTQKAGVT [NEK8], the protein stability index reads like this: under setting [1], 3.1 ± 0.33; under setting [2], 3.47 ± 0.23.
LRSCYFSDPDCSMRPTLIDLLPTF [FBXO39]: the protein stability index is 2.46 ± 0.35 under setting [1] and 2.2 ± 0.26 under setting [2].
In the same order, the values of LRTHIDAIILALPEDLQGILLKTG [DENND6A] are 2.17 ± 0.31 and 2.4 ± 0.084.
Turning to LRTRVKTTGIVETHFTFKDLHFKM [GNAI1], the protein stability index under setting [2] turned out to be 2.14 ± 0.62.
Regarding LRYYYDKNIIHKTSGKRYVYRFVC [ETS2], the protein stability index runs as follows: under setting [1], 2.79 ± 0.48; under setting [2], 2.53 ± 0.62.
Sequence LSEASGGRAENGERSDLEEDNERE [ZC3H15] returned a protein stability index under setting [1] of 5.53 ± 0.47 and a protein stability index under setting [2] of 5.81 ± 0.062.
In the same order, the values of LSELLRYHTSQSGDEMTSLSEYVS [HSP90AB1] are 3.27 ± 0.23 and 3.6 ± 0.21.
In the same order, the values of LSMVSECLFSLINGDDMFVTFAAM [MCOLN1] are 2.35 ± 0.43 and 2.31 ± 0.3.
LSNLVGKPSENHPLHNSGLLSLDP [MED27]: the protein stability index was determined as 3.87 ± 0.28 under setting [1] and 4.13 ± 0.26 under setting [2].
In the same order, the values of LSPISHGNTIALFFRSLLPNYTME [TCF25] are 3.25 ± 0.47 and 2.33 ± 0.7.
On to LSSGMAVAGMPTAYDLSSVIASGS [CARM1], for which the protein stability index by setting is: under setting [1], 3.02 ± 0.22; under setting [2], 2.9 ± 0.41.
Consider LSSSSARFLSRSIPSLQSEYVHY [CDC14A], for which the protein stability index was 3.19 ± 0.27 under setting [3] and 3.06 ± 0.26 under setting [4].
With LSTHNWTYWQCGQYLGVGPGAHGR [RSAD1], the protein stability index is, setting by setting: under setting [1], 2.31 ± 0.21; under setting [2], 1.99 ± 0.27.
The matching figures for LSVAPQIGMPFNQLGTLAGSKYYN [SMG5]: 2.67 ± 0.15 and 2.71 ± 0.011.
As to LTDFYPVRRSSRKSKAELQSEERK [KMT5A], the protein stability index worked out at 3.04 ± 0.39 under setting [1] and 3.49 ± 0.9 under setting [2].
In the same order, the values of LTKDEAAAHLKLTSIEEGYERSFI [IQUB] are 3.58 ± 0.39 and 3.43 ± 0.16.
The matching figures for LTLDLPTAPLYKDEKEQLIIPQVP [USP39]: 3.91 ± 0.33 and 3.92 ± 0.25.
With LVAGIGFYQHLLLYIQSHYQLELQ [SMG5], the protein stability index amounted to 2.99 ± 0.5 under setting [1] and 3.11 ± 0.43 under setting [2].
The matching figures for LVFLITAILVKVQLDALPFFVITM [SLC29A1]: 3.06 ± 0.24 and 2.88 ± 0.39.
Take LVMPIEDQLTQIMRTGQNTWESKN [PCMTD1]: the protein stability index is, setting by setting: under setting [1], 3.13 ± 0.13; under setting [2], 3.2 ± 0.38.
LYPFQIHSIALSTFASLIGPFGGF [CDS1]: the protein stability index under setting [1] is 3.36 ± 0.62 and the protein stability index under setting [2] came out at 3.09 ± 0.36.
The matching figures for LYVVIPTRRSTAEAFQIVLSHLLG [SPNS1]: 2.72 ± 0.4 and 2.71 ± 0.33.
In the same order, the values of LYWTKWYNNQSLGHGSHSFIYYEN [PKD2L1] are 2.53 ± 0.68 and 2.41 ± 0.47.
Consider MADVINVSVNLEAFSQAISAIQAL [MED27], for which the protein stability index was found to be 2.38 ± 0.72 under setting [1] and 2.23 ± 0.17 under setting [2].
In the same order, the values of MADWARAQSPGAVEEILDRENKRM [BET1L] are 4.71 ± 0.35 and 4.75 ± 0.21.
The matching figures for MASPCSAMAYHHDSRRIFVGQDNG [WDFY1]: 2.64 ± 0.18 and 2.67 ± 0.11.
The matching figures for MASQSQGIQQLLQAEKRAAEKVSE [ATP6V1G1]: 4.93 ± 0.36 and 5.385 ± 0.052.
For MDETSPLVSPERAQPPDYTFPSGS [PI4K2A], the protein stability index was found to be 4.91 ± 0.15 under setting [1] and 4.78 ± 0.39 under setting [2].
For MDRFDCQYLMATFVHVYITSFIRG [CDS1], the protein stability index runs as follows: under setting [1], 3.01 ± 0.56; under setting [2], 3.67 ± 0.73.
The matching figures for MDRRSRAQQWRRARHNYNDLCPPI [GNAS]: 2.92 ± 0.19 and 3.13 ± 0.3.
The matching figures for MEAADASRSNGSSPEARDARSPSG [TRIM29]: 5.29 ± 0.18 and 5.5 ± 0.091.
In the same order, the values of MEALDLQPGLSFLNLGSGTGYLSS [PCMTD2] are 3.4 ± 0.36 and 3.45 ± 0.4.
As to MGERKGVNKYYPPDFNPEKHGSLN [YJU2B], the protein stability index is 4.11 ± 0.4 under setting [1] and 4.18 ± 0.12 under setting [2].
Take MGSASPGLSSVSPSHLLLPPDTVS [SPDEF]: the protein stability index reads like this: under setting [1], 4.28 ± 0.27; under setting [2], 4.2 ± 0.23.
In the same order, the values of MINLRRLLLSHIHASSYISPEKEE [PRAME] are 2.41 ± 0.26 and 2.63 ± 0.57.
With MKKGGIFSAEFLKVFIPSLFLSHV [BNIP3L], the protein stability index reads like this: under setting [1], 3 ± 1.1; under setting [2], 2.51 ± 0.56.
In the same order, the values of MLPGRTDNAVKNHWNSTIKRKVDT [MYBL2] are 3.61 ± 0.17 and 4.09 ± 0.24.
In the same order, the values of MLQRAIAYQHSGHLESKDINQEEL [C10orf62] are 3.96 ± 0.19 and 4.14 ± 0.24.
In the same order, the values of MMDSRTSQQLQLIDEQDSYIQSRA [STX5] are 4.77 ± 0.15 and 4.74 ± 0.076.
MNLELLESFGQNYPEEADGTLDCI [RBBP5]: the protein stability index amounted to 4.77 ± 0.25 under setting [1] and 4.89 ± 0.12 under setting [2].
The matching figures for MNNAVRNLQELLELDSSSSLCVLV [CEP70]: 2.36 ± 0.29 and 2.32 ± 0.19.
For the sequence MPAAGLAVQLRHAWNPEDRSLNVF [SPSB4], the protein stability index under setting [1] turned out to be 2.75 ± 0.14 and the protein stability index under setting [2] was found to be 2.95 ± 0.26.
The matching figures for MPATPSLKVVHELPACTLCAGPLE [TRIM15]: 3.95 ± 0.28 and 4.03 ± 0.2.
In the same order, the values of MSCRDRTQEFLSACKSLQTRQNGI [STX5] are 3.1 ± 0.21 and 3.1 ± 0.36.
The matching figures for MSEADGLRQRRPLRPQVVTDDDGQ [APMAP]: 5.36 ± 0.28 and 5.37 ± 0.33.
For MSKLLKRQNDILQVVSQGWKYFKG [CD207], the protein stability index was 2.28 ± 0.36 under setting [1] and 2.28 ± 0.082 under setting [2].
The matching figures for MSLEPQNGTYAGPAPAFQPFFFTG [ANKRD40]: 2.29 ± 0.35 and 2.15 ± 0.31.
In the same order, the values of MSTKESDFLCLLGVSYTFDNEDSE [MIA2] are 2.92 ± 0.14 and 2.91 ± 0.29.
Take MTSLTQRSSGLVQRRTEASRNAAD [GOLPH3]: the protein stability index by setting is: under setting [1], 4.89 ± 0.27; under setting [2], 5.03 ± 0.19.
MTVKPAKAASLARNLAKRRRTYLG [RSPH3]: the protein stability index came to 3.16 ± 0.3 under setting [1] and 3.6 ± 0.3 under setting [2].
As to MVGGGQPCGPNMSEVSCKKRDDYL [DCTD], the protein stability index runs as follows: under setting [1], 4.11 ± 0.33; under setting [2], 4.21 ± 0.19.
With MWKFVSPLCMAVLTTASIIQLGVT [SLC6A17], the protein stability index reads like this: under setting [1], 3.21 ± 0.58; under setting [2], 2.87 ± 0.49.
In the case of MYKLSSEQFHEAASKMESTIKPRR [CHCHD6], the protein stability index worked out at 3.72 ± 0.53 under setting [1] and 4.07 ± 0.64 under setting [2].
In the same order, the values of MYRWKLSSHEPCSATCTTGVMSAY [ADAMTSL2] are 2.24 ± 0.74 and 2.2 ± 0.73.
The matching figures for NALSKSSAPPITPECRQVLKTSRK [CHGB]: 4.68 ± 0.22 and 4.77 ± 0.15.
The matching figures for NCRLQSPYFSPSASFHHKLHHKRL [CBY2]: 2.32 ± 0.24 and 2.33 ± 0.16.
As to NEDPLVLLAWRCTKLSLLAIHGYT [FBXO33], the protein stability index was determined as 3.05 ± 0.33 under setting [1] and 2.91 ± 0.65 under setting [2].
Regarding NEKEKALQAQVQYQQQHEQQKKDL [SASS6], the protein stability index is, setting by setting: under setting [1], 5.66 ± 0.2; under setting [2], 5.48 ± 0.5.
The matching figures for NESKGTRESWDSAKKLPPVQESQS [ELOA2]: 5.41 ± 0.096 and 5.1 ± 0.4.
The matching figures for NETQPIDLSGLPLQSSKNSYSFQN [RNF180]: 3.95 ± 0.22 and 3.89 ± 0.18.
In the same order, the values of NFIGRQWEISDDYPSLQAMGWFNN [CRYBA1] are 2.45 ± 0.18 and 2.32 ± 0.18.
